Changes are numbered by the printed parent chain. Read-outs that look alike come from different tables or passages of the source.
B1: 80R_5 antibody (antibody, V domains shown)
VH: EVQLVQSGGGVVQPGKSLRLSCKASGFAFSNYAMHWVRQAPGKGLEWVAVISYDGSYKYYADSVKGRFTISRDNSKNTLYLQMNSLRAEDTAVYYCARDRSYYLDYWGQGTLVTVSS
VL: TTLTQSPATLSLSPGERATLSCKASEDIGTALAWYQQKPGQAPRPLIFDGAILAPGIPDRFSGSGSGTDFTLTISRLEPEDFAVYYCHNVYSWPPTFGQGTKVEVK
B2: 80R_8 antibody (antibody, V domains shown)
VH: B1 VH with K23V, A28D, S30K, S56K
VL: B1 VL with K23I, E26Q, A31N, S66A, H88Q, N89Q, V90T, S92N
B3: 80R_22 antibody (antibody, V domains shown)
VH: B1 VH with K23V, A28D, S30K, N31S, R100N, S101A
VL: B1 VL with K23H, D49Y, G50A, I52Q, H88A, N89Q, V90Y, Y91W, W93L
B4: 80R_18 antibody (antibody, V domains shown)
VH: B1 VH with K23V, A28N, N31E, R100N, S101A
VL: B1 VL with K23Q, A31N, G50A, I52Q, D69Q, H88Q, N89Q, V90I, S92N, T96S
B5: 80R_10 antibody (antibody, V domains shown)
VH: B1 VH with K23V, A28D, S30K, N31S, S56R
VL: TTLTQSPATLSLSPGERATLSCHASEDIGTALAWYQQKPGQAPRPLIFYAAQLAPGIPDRFSGSGSGTDFTLTISRLEPEDFAVYYCFQSWTLPLTFGQGTKVEVK
B6: 80R_6 antibody (antibody, V domains shown)
VH: B1 VH with K23T, A28N, N31E
VL: B5 VL with H23K, T30S, A31N, Y49D, S90I, W91Y, L93W, L95P
B7: 80R antibody (antibody, V domains shown)
VH: B1 VH with K23A, N31S, Y57N
VL: TTLTQSPATLSLSPGERATLSCRASQSVRSNLAWYQQKPGQAPRPLIYDASTRATGIPDRFSGSGSGTDFTLTISRLEPEDFAVYYCQQRSNWPPTFGQGTKVEVK
B8: 80R_7 antibody (antibody, V domains shown)
VH: B1 VH with K23Q, A28D, S30K, N31S, Y57I, Y59H
VL: B5 VL with H23I, E26Q, Y49D, A50G, Q52I, S66A, F88M, S90T, L95V
B9: 80R_21 antibody (antibody, V domains shown)
VH: B1 VH with K23V, A28D, N31K, R100N, S101A
VL: B1 VL with A31N, G50A, H88M, N89Q, V90I, S92N, T96S
B10: 80R_19 antibody (antibody, V domains shown)
VH: B1 VH with K23V, A28D, S30K, N31S, R100N, S101A
VL: B5 VL with A31N, Y49D, F88M, S90I, W91H, T92N, L93W, L95P, T96S
B11: 80R_23 antibody (antibody, V domains shown)
VH: B1 VH with K23V, A28D, S30K, N31S, R100N, S101A
VL: B1 VL with K23H, A31N, I52Q, H88Q, N89Q, V90I, S92N, T96S

Assays:
Test in all cases: BLI
[1] = biological target: T1, SARS-CoV-2 B.1.617.2 Spike S1+S2 trimer (ECD, His tag) (SARS-CoV-2, Delta (B.1.617.2), L452R | T478K)
[2] = biological target: SARS-CoV-2 Spike Trimer, His Tag (BA.5/Omicron) (SARS-CoV-2, Omicron BA.5, strain)
[3] = biological target: Wild-type SARS-CoV-2 full length spike trimer (SARS-CoV-2, wild type (Wuhan-Hu-1), UniProt P0DTC2)
[4] = biological target: Wuhan S6P SARS-CoV-2 full length spike trimer (SARS-CoV-2, Wuhan, UniProt P0DTC2, stabilised)
[5] = biological target: T1, SARS-CoV-2 B.1.617.2 Spike S1+S2 trimer …; remark: listed apart in the source

| Binder | Kd [3] [nM] | other results |
| --- | --- | --- |
| B1 | 0.468 | Kd [1]: 0.441 nM; Kd [2]: 1.12 nM; Kd [4]: < 0.001 nM; Kd [5]: 0.443 nM |
| B2 | 114 | – |
| B3 | 1.39 | – |
| B4 | 2.68 | – |
| B5 | 1.82 | – |
| B6 | 4.16 | – |
| B7 | – | binding result [3]: no binding |
| B8 | 2.85 | – |
| B9 | 3.1 | – |
| B10 | 0.845 | – |
| B11 | 0.858 | Kd [5]: 0.625 nM |

From paper PMC10069166 (Heliyon, 2023)
